Test results as given in patent publication US20190194358A1 (ARIZONA BOARD OF REGENTS A BODY CORPORATE OF THE STATE OF …, published 2019).
Ends that are not written are not given here.

Key:
albumin = experiment: SPR
transferrin [1] = target: T1, transferrin (human, UniProt P02787 20-698); experiment: SPR (Biacore A-100), purified peptide at several concentrations, equilibrium
T1 construct: also called TRF; pooled human transferrin (Sigma)
Source text: A Biacore A-100 Surface Plasmon Resonance (SPR) system was used to measure the binding response of each peptide to several different target proteins immobilized on a gold surface. The A-100 has four different flow cells and within each flow cell are five addressable spots. Therefore four different proteins and a negative control reference can be used per flow cell. […] Sensorgrams are collected from each immobilized protein, so a binding profile for each analyte versus each of the protein targets is generated for each injection. Target proteins were immobilized using a biotin capture approach in which a CM5 chip was activated using standard amine coupling chemistry and Neutravidin was covalently coupled to the chip. Each biotinylated protein was injected over a single spot and the amount of protein captured was measured. In this manner four proteins were immobilized per flow cell. In this example, the same four proteins were captured in all four flow cells for this experiment.

transferrin [2] = target: T1, transferrin; experiment: SPR, transferrin immobilised, Kd from kinetics
Source text: Flow rates and contact times are adjusted as necessary to provide the surface concentration of target desired for the intended application, and may vary by target. In general, for evaluating whether binding occurs, it is preferable to immobilize a relatively large quantity of target, and higher flow rates and/or longer contact times may be used. For determining kinetics, it is preferable to limit the amount of target immobilized so as to minimize rebinding and avidity effects, and lower flow rates and/or contact times may be used.

T1 sequence (P02787 20-698 limits assumed): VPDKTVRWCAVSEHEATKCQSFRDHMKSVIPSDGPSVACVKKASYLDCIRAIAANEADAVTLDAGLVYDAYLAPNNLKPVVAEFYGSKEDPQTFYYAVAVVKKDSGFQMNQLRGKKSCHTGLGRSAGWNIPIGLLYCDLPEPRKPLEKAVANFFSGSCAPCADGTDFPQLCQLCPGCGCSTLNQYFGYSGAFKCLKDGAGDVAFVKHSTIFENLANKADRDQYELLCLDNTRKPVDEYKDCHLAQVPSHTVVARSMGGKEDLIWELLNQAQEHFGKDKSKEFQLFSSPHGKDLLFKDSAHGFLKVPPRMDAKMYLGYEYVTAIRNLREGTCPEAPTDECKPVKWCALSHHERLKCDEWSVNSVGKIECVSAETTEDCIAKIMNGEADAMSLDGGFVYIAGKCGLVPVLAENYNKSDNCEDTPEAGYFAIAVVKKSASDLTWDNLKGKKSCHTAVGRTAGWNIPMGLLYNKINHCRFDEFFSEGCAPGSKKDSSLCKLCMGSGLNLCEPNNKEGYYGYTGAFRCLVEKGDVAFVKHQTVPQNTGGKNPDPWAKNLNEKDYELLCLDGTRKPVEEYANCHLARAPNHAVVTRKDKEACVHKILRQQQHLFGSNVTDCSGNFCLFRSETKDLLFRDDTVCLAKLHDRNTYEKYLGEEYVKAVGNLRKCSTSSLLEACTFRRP

B1: linker-optimized BP1/BP2 DNA-linked synbody (BP1 on the template strand, BP2 at position 13 from the 3' end of the variable strand) (designed binder)
peptide 1: GTEKGTSGWLKTGSC
peptide 2: EGEWTEGKLSLRGSC
modifications: not fully specified (some residues); cysteine pairing not given here; also: DNA strands hybridised
notes: The two peptide-DNA conjugates are held together by hybridisation of the DNA strands; also called Gal80 synbody; BP1-BP2 containing synbody
For B1, the “Kd relative to the Kd for gal80 (fold)” value (albumin) was over 1000 fold.

B2: TRF101 (peptide)
peptide: ARDLLIQKNSGQDVDHRGSC
notes: Screened unpurified, then resynthesised and HPLC purified
B2 was tested, and the Kd (transferrin [1]) was 78.9 µM.

B3: synbody comprising TRF-26 and TRF-23 (Example 9, lysine-linked) (designed binder)
peptide 1: AHKVVPQRQIRHAYNRYGSG
peptide 2: FRGWAHIFFGPHVIYRGGSG
modifications: not fully specified (bridges); also: C-termini joined to alpha or epsilon amines of branching Lys, orientation not given here, followed by C-terminal Cys, Gly or Ala, not given here which
notes: probably the same construct family as SYN23-26
B3 gave a Kd (transferrin [2]) of 0.15 µM.
